# Experimental data as given in patent publication US20150291951.
# Key:
# Assay in all cases: cell_activity
# [1] = test system: ponzr1 right TALEN +231 (pTAL) (synthetic construct (Xanthomonas TALE-FokI)); details: pair with P3; zebrafish larvae
# [2] = test system: crhr1 right TALEN +63 (synthetic construct (Xanthomonas TALE-FokI)); details: pair with P5, 15 bp spacer; 15-fold over +231
# [3] = test system: crhr1 right TALEN +231 (synthetic construct (Xanthomonas TALE-FokI)); details: pair with P7
# [4] = test system: ponzr1 left TALEN +231 (pTAL) (synthetic construct (Xanthomonas TALE-FokI)); details: pair with P4; zebrafish larvae
# [5] = test system: crhr1 left TALEN +231 (synthetic construct (Xanthomonas TALE-FokI)); details: pair with P8
# [6] = test system: crhr1 left TALEN +63 (synthetic construct (Xanthomonas TALE-FokI)); details: pair with P6, 15 bp spacer; 15-fold over +231
sequence,measurement,setting,value
ATCAGAACAACAGTCAGAGAT (double strand) [ponzr1 right half-site],activity (% modification (median)),[1],5
CTGCTGCCGACTGGACCCTGAGGT (double strand) [crhr1 right half-site],activity (% modification (median)),[2],7
same,activity (% modification (median)),[3],< 1
GTGAGCACCCAGCGGACCTCCTCT (double strand) [ponzr1 left half-site],activity (% modification (median)),[4],5
TGCAACACTGAGCTCTGTAAACCT (double strand) [crhr1 left half-site],activity (% modification (median)),[5],< 1
same,activity (% modification (median)),[6],7
